For assay [1], the target named is T1, Human CD3 antigen for detection (SinoBiological cat #CT038-H2508H); human CD3 epsilon-His and human CD3 … (human, UniProt P07766 23-126; P04234 22-105).
T1 construct: Bought antigen
The experiment in a line: Biacore T200 SPR, bispecific antibody captured, CD3 antigen as analyte, 1:1 Langmuir fit. As for the experimental part: (§1) The detection of antibody affinity to B7H3 and CD3 was performed in the form of capture antibody. BsAb was captured by CM5 biosensor chip (Cat. #BR-1005-30, GE) or Protein A (Cat. #29127556, GE) biosensor chip coupled with Anti-Human IgG Antibody (Cat. #BR-1008-39, Lot. #10260416, GE), and then each antigen flowed through the surface of the chip. The reaction signals were detected in real time with the Biacore T200 instrument to obtain the binding and dissociation curves. After the dissociation of each experimental cycle was completed, the chip was washed and regenerated with regeneration buffer Glycine1.5 (Cat #BR100354, GE) or 3 M MgCl₂ (from Human antibody capture kit, Cat. #BR100839, GE). The data were fitted with the (1:1) Langmuir model using GE Biacore T200 Evaluation version 3.0 software, and the affinity values were obtained.
Background: SPR reads the build-up and loss of mass on a sensor chip optically.

Assay [2] addresses T2, Monkey CD3 antigen for detection (Acro biosystem cat #CDD-C52W4); monkey CD3 epsilon-His and monkey CD3 … (monkey (cyno), UniProt Q95LI5 22-117; Q95LI8 22-105).
T2 construct: Bought antigen
The experiment in a line: Biacore T200 SPR, bispecific antibody captured, antigen as analyte, 1:1 Langmuir fit. As for the experimental part: as §1

In assay [3] the target is T1, Human CD3 antigen for detection …. The description is as above. As for the experimental part: as §1
Assay [4] addresses T3, Human B7H3 antigen for detection (SinoBiological cat #11188-H08H) (human, UniProt Q5ZPR3 29-461).
T3 construct: Bought antigen
T3 sequence: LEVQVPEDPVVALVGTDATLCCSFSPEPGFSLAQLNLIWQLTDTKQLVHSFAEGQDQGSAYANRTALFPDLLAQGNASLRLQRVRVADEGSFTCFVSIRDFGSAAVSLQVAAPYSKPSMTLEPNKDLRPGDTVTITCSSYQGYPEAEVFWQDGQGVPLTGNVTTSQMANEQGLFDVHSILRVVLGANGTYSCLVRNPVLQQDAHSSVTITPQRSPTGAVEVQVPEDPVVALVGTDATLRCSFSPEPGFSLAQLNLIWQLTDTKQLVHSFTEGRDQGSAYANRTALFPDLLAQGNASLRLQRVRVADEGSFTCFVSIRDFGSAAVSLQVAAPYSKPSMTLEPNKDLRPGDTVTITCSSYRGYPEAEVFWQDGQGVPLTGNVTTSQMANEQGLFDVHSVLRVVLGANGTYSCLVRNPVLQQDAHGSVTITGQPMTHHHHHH
The assay is described as above. As for the experimental part:
as §1

Assay [5] deals with T4, Monkey B7H3 antigen for detection (SinoBiological cat #90806-C08H) (monkey (cyno)).
T4 construct: Bought antigen; also called monkey (cyno) B7H3
T4 chain: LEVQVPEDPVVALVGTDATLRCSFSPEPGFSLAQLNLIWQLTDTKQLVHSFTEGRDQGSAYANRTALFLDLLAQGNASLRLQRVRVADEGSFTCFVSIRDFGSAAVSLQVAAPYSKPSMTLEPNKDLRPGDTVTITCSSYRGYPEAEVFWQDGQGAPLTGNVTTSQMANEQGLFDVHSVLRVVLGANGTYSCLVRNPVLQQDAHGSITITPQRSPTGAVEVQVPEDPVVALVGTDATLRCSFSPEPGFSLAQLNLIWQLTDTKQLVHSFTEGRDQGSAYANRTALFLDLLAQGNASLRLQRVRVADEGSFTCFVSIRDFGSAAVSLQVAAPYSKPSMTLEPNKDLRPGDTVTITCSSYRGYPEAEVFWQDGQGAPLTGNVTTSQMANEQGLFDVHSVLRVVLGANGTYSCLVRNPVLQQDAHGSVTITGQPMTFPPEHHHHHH
The assay is described as above. The protocol:
as §1

The target in assay [6] is T5, human B7H3 on the cell surface (A498, CT26/hB7H3, U87, Detroit562 cells) (human, UniProt Q5ZPR3 29-534).
T5 construct: Endogenous on A498, U87 and Detroit562 tumor cells, over-expressed on CT26/hB7H3
T5 sequence: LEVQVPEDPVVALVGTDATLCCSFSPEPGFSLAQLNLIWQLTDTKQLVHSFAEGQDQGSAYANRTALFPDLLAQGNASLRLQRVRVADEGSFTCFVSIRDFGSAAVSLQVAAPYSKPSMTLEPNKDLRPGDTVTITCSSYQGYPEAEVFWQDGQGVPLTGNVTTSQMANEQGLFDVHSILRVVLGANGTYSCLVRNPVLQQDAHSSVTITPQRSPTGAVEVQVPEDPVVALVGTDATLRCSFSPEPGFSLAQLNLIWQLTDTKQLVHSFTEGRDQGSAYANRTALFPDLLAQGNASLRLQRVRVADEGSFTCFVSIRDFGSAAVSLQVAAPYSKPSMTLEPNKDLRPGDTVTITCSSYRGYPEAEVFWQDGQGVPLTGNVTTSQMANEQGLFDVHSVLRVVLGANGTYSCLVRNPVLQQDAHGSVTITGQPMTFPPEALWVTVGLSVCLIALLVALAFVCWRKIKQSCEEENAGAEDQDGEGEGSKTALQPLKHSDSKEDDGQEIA
The experiment in a line: FACS on A498 cells expressing human B7H3, APC anti-human IgG Fc detection, geometric mean fluorescence. The protocol: (§2) The ability of bispecific antibodies to bind to cell surface antigens was detected by FACS method.
(§3) FACS buffer (98% PBS, 2% FBS) was added into a 96-well U-shaped bottom plate (corning, 3795) to resuspend the cells, the serially diluted antibodies were added, incubated at 4° C. for 1 hour, and the plate was washed with FACS buffer twice. Then APC anti-human IgG Fc Antibody (biolegend, Cat #409306, dilution at 1:50) was added into each well, incubated at 4° C. for 30 minutes, washed twice, the cells were resuspended in FACS buffer, and finally the fluorescence signal values were read by FACS CantoII (BD).

The target of assay [7] is T5, human B7H3 on the cell surface (A498, …). The experiment in a line: cell-based or functional assay.
Assay [8] has the same target. The experiment in a line: FACS on CT26/hB7H3 cells over-expressing human B7H3, APC anti-human IgG Fc detection, geometric mean fluorescence. As for the experimental part: as §2, §3
In assay [9] the target is T1, Human CD3 antigen for detection …. The experiment in a line: Biacore T200 SPR, bispecific antibody captured, CD3 antigen as analyte. As for the experimental part: as §1

T1 sequence (P07766 other isoform, or with tags, fused parts or gaps H2508H H2508H, chain 1 of 2): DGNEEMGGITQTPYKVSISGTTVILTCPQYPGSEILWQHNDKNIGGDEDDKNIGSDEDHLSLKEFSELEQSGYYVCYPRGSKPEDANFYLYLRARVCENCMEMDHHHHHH
T1 sequence (P04234 other isoform, or with tags, fused parts or gaps H2508H H2508H, chain 2 of 2): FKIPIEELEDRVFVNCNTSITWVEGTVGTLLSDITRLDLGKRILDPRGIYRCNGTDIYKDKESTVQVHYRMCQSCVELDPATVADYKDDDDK
T2 sequence (Q95LI5 other isoform, or with tags, fused parts or gaps mutant, chain 1 of 2): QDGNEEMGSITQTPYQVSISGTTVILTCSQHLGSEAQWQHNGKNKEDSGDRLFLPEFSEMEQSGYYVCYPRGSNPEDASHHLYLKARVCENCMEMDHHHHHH
T2 sequence (Q95LI8 other isoform, or with tags, fused parts or gaps mutant, chain 2 of 2): as the sequence (P04234 other isoform, or with tags, fused parts or gaps H2508H H2508H, chain 2 of 2) above, with I5V, N15K, I20V, S32T, D33N, I34N, T64A, S74N, V83L counted along it

B1: bispecific antibody 127 (AFF3-3) (bispecific antibody)
chain 1: not shown
chain 2: QTVVTQEPSFSVSPGGTVTLTCGLSSGSVSTSHYPSWYQQTPGQAPRMLIYNTNTRSSGVPDRFSGSILGNKAALTITGAQADDESDYYCAIHVDRDIWVFGGGTKLTVLGGGGSGGGGSGGGGSQVQLVQSGGGVVQPGTSLRLSCAASGFIFSSSAMHWVRQAPGKGLEWVAVISYDGSNKYYVDSVKGRFTISRDNSKNTLYLQMNSLRAEDTAVYYCARSARLYASFDYWGQGALVTVSSGGGDKTHTCPPCPAPEAAGGPSVFLFPPKPKDTLMISRTPEVTCVVVDVSHEDPEVKFNWYVDGVEVHNAKTKPREEQYNSTYRVVSVLTVLHQDWLNGKEYKCKVSNKALPAPIEKTISKAKGQPREPQVCTLPPSREEMTKNQVSLSCAVKGFYPSDIAVEWESNGQPENNYKTTPPVLDSDGSFFLVSKLTVDKSRWQQGNVFSCSVMHEALHNHYTQKSLSLSPGK
notes: B7H3 bivalent CD3-B7H3 bispecific antibody, CD3 VH HRH-3
The term Kd denotes the constant that tells how readily two partners part at equilibrium. What is called EC50 (read off the curve) is the concentration at which the effect is half-maximal. Take B1: in [1], the affinity, expressed as Kd, was 97.2 nM. The Kd in assay [2] amounted to 1.24 nM. Besides, the Kd in assay [3] amounted to 84.7 nM. In [4], this molecule showed a Kd of 4.29 nM. This molecule registered a Kd in assay [5] of 5.61 nM. In addition, the “EC50 (read off the curve)” value in assay [6] is around 40 nM. Besides, in assay [7], the “Emax (%), PBMC-mediated killing of A498 cells (B7H3 high)” value was 67.5%; the “Emax (%), PBMC-mediated killing of Detroit562 cells (B7H3 low)” value turned out to be 26.5%; the “Emax (%), PBMC-mediated killing of U87 cells (B7H3 intermediate)” value came to 69.5%; the “IC50 (nM), PBMC-mediated killing of A498 cells (B7H3 high)” value was 2.4 nM. In assay [7], the “IC50 (nM), PBMC-mediated killing of Detroit562 cells (B7H3 low)” value was 15.8 nM and the “IC50 (nM), PBMC-mediated killing of U87 cells (B7H3 intermediate)” value worked out at 8.2 nM. In assay [8], the “EC50 (read off the curve)” value is around 2 nM.

B2: bispecific antibody 156 (AFF3-6) (bispecific antibody)
chain 1: not shown
chain 2: B1 chain 2
notes: B7H3 bivalent CD3-B7H3 bispecific antibody, CD3 VH HRH-6
In the case of B2, the binding result in [9] is recorded as “no binding”.

B3: bispecific antibody 155 (AFF3-5) (bispecific antibody)
chain 1: not shown
chain 2: B1 chain 2
notes: B7H3 bivalent CD3-B7H3 bispecific antibody, CD3 VH HRH-5
As to B3, in assay [9], the binding result is recorded as “no binding”.

Source of the values: patent US20220242953A1 (JIANGSU HENGRUI MEDICINE, published 2022).
